# Experiments:
# lck_human LCK [1] = molecular target: lck_human LCK (UniProt P06239)
# lck_human LCK [2] = molecular target: lck_human LCK (UniProt P06239); remark: listed apart in the source
# lck_human LCK [3] = molecular target: lck_human LCK (UniProt P06239); remark: listed apart in the source
# lck_human LCK, sequence (P06239 whole entry, looked up): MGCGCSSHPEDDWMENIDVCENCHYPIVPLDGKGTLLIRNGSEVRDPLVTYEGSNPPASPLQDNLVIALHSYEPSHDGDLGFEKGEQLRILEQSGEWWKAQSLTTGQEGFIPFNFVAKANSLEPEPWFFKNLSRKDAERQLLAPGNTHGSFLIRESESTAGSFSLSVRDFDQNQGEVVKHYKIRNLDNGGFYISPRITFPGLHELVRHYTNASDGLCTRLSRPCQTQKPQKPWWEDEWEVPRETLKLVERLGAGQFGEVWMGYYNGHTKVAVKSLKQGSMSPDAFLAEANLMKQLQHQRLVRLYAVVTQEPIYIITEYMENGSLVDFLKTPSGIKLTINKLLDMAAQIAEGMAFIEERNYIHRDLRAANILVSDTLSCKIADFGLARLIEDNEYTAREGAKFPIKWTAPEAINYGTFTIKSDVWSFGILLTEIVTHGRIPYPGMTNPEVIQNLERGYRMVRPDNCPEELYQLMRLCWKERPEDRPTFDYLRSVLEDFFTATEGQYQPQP
# Tyrosine-protein phosphatase non-receptor type 6 (Homo sapiens), P29350 Y564F, sequence (P29350 whole entry Y564F): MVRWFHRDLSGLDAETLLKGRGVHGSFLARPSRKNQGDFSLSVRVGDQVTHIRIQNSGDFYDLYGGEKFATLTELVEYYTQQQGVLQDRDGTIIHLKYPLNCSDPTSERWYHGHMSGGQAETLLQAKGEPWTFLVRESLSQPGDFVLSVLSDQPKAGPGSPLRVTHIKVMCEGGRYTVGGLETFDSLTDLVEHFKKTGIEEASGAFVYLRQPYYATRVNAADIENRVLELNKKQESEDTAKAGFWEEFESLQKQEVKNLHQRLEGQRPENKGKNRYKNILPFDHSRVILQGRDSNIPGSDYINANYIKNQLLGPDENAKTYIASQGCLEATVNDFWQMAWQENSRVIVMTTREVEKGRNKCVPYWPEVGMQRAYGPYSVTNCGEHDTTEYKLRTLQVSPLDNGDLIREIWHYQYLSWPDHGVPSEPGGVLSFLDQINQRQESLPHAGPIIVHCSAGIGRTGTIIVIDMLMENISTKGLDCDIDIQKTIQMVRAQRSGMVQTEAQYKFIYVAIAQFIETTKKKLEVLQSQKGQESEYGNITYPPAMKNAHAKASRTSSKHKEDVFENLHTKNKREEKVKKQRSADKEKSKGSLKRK
# Tyrosine-protein phosphatase non-receptor type 6 (Homo sapiens), P29350 Y541F, sequence (P29350 whole entry Y541F): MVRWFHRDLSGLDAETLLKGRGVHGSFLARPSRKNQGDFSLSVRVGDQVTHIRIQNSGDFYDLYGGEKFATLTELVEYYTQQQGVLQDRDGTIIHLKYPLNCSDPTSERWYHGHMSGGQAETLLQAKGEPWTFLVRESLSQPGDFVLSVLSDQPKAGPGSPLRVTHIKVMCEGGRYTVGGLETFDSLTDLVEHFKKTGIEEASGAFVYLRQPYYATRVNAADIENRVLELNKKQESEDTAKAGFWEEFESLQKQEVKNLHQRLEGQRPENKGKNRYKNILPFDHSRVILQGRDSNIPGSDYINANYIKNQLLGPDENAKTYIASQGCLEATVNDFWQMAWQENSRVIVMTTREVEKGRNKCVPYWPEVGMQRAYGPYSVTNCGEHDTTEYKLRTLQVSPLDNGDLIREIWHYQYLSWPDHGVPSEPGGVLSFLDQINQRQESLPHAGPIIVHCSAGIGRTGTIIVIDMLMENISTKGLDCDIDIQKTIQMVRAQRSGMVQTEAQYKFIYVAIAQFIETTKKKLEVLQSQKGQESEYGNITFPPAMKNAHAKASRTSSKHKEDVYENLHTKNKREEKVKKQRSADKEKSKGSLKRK
# Tyrosine-protein phosphatase non-receptor type 6 (Homo sapiens), P29350 Y536F, sequence (P29350 whole entry Y536F): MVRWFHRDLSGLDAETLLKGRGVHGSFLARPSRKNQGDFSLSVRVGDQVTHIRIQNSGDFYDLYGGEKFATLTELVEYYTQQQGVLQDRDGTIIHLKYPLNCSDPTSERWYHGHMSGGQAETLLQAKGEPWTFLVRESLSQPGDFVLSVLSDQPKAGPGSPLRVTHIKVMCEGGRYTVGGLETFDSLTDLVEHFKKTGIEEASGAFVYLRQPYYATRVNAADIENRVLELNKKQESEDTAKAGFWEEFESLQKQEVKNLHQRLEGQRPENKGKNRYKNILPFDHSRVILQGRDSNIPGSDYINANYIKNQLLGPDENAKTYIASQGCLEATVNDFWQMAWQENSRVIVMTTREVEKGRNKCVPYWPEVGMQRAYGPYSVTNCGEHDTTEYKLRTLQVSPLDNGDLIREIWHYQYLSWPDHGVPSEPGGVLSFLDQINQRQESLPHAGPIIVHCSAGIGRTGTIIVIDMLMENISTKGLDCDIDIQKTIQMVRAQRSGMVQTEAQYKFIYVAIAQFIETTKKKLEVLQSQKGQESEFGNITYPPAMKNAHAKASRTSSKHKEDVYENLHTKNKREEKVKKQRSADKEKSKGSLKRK
substance,measurement,setting,value
"Tyrosine-protein phosphatase non-receptor type 6 (Homo sapiens), P29350 Y564F",effect of a mutation on the interaction,lck_human LCK [1],decreasing interaction
"Tyrosine-protein phosphatase non-receptor type 6 (Homo sapiens), P29350 Y536F",effect of a mutation on the interaction,lck_human LCK [2],decreasing interaction
"Tyrosine-protein phosphatase non-receptor type 6 (Homo sapiens), P29350 Y541F",effect of a mutation on the interaction,lck_human LCK [3],decreasing interaction

# Reference: IntAct's records for PubMed 8114715
